Reference: patent publication US20160311918A1, “Anti-Ron Monoclonal Antibodies as a Cytotoxic Drug Delivery System for Targeted Cancer Therapy” (TEXAS TECH UNIVERSITY SYSTEM, priority 2013, published 2016)

Assays:
[1] = Acute toxicity in Balb/c mice; type: in vivo, mouse
Description: FIGS. 6A to 6C show the toxicity of Zt/g4-DM1 in vivo. Body weight was measured every four days during the period of Zt/g4-DM1 treatment. FIG. 6A: Effect of multiple doses of Zt/g4-DM1 on mouse body weight was determined by administration of Zt/g4-DM1 at 1, 3, 7, 10, 15 mg/kg every four day with a total of 5 injections. Mice were weighed and monitored for a total of 31 days. FIG. 6B: Effect of a single dose of Zt/g4 at 20 mg/kg on mouse body weight was determined using mice bearing HT29, HCT116, or SW620-derived tumors. Body weight was monitored up to 28 days. FIG. 6C: Effect of high doses of Zt/G4-DM1 on mouse body weight was analyzed by tail vein injection at 20, 40 and 60 mg/kg to Balb/c mice. Mice were euthanized at day 21. In all cases, the average body weight of mice before Zt/g4-DM1 injection was 19.8±3.6 grams (5 mice per group) and set as 100%;
In vivo toxicity studies: Acute toxicity with maximum tolerated dose was determined in Balb/C mice (four mice per dose) by a single tail vein injection of Zt/g4-DM1 at 20, 40, and 60 mg/kg body weight. Toxicity associated with different therapeutic doses was evaluated in athymic nude mice bearing HT29 tumor xenograft (five mice per dose). […] Toxicity was assessed by observing mouse behavior, weight loss, and survival.
Toxic effect of Zt/g4-DM1 on mice. Three studies using two different types of mice were performed to study Zt/g4-DM1 on animal behavior and body weight. The first study addressed the impact of multi-doses of Zt/g4-DM1. Athymic nude mice were injected five times with 1, 3, […], 7, 10, 15 mg/kg of Zt/g4-DM1 and monitored every four days for a total period of 31 days. […] The second study observed the effect of a single dose of Zt/g4-DM1 at 20 mg/kg in nude mice bearing tumors derived from HT29, HCT116, and SW620 cells. […] The third study involved a single-dose injection of Zt/g4-DM1 at 20, 40, and 60 mg/kg in Balb/c mice monitored for 24 days (FIG. 6C). […] Also, a moderate reduction of about 6% body weight was observed within the first four days after 60 mg/kg Zt/g4-DM1 injection. Although the average body weight from this group of mice slowly recovered during the observation period, the overall average remained lower than that of control mice with a 19% difference compared to that of control mice at day 24. Thus, Zt/g4-DM1 at the multiple-dose regimen appeared to be well tolerated.

[2] = test system: HT29-Luc2 xenograft tumor; assay: HT29-luc2 mouse xenograft tumor model; type: in vivo; conditions: for tumor growth inhibited: five injection regimen
Description: Athymic nude mice (five mice per group) were subcutaneously inoculated with 5×10^6 HCT116, HT29, and SW620 cells followed by injection of 20 mg/kg Zt/g4-DM1 through tail vein. FIG. 4A: Tumor growth from HT29-luc2 or HCT116-luc2 cells was determined by measuring average photon intensity (left panel). SW620-derived tumor growth was monitored by measuring tumor volume (FIG. 4B) (right panel). FIG. 4C: Tumor images with photon emission or caliper measurement at day 16 are presented. The scale from minimal to maximal is set at 300 to 35,000 photons per second. The percentages of inhibition were calculated from the average photon emission (for HT29 and HCT116 cells) or tumor volume (for SW620 cells). FIG. 4D: Individual tumors from different groups were weighed at day 28. The percentages of inhibition were calculated by a formula: (average tumor weight from Zt/g4-DM1 treated group/average tumor weight from control mice)×100%;
FIGS. 5A to 5F show the evaluation of different doses of Zt/g4-DM1 on tumor growth and RON expression. FIG. 5A: Effect of multi-dose of Zt/g4-DM1 on tumor growth was tested in HT29 cell-induced tumors. Tumor-bearing mice were treated with different doses of Zt/g4-DM1 every four days for a total of five injections ( ? ). Tumor growth was determined by the average bioluminescence intensity. FIG. 5B: An IC50 value based on the average bioluminescence intensity from individual groups at day 31 was calculated using GraphPad Prism 6 software. FIG. 5C: Bioluminescence images of individual tumors from each group at day 31 are shown. The percentages of inhibition were calculated from the average photon emission. The color scale from minimal to maximal is set at 300 to 35,000 photons per second. FIG. 5D: Individual tumors from different groups were collected and weighed at day 31, 35, and 43, respectively. The percentages of inhibition were calculated as detailed in FIG. 4C. FIG. 5E: Samples of HT29 cell-derived xenograft tumors from both control and 15 mg/kg Zt/g4-DM1-treated mice at day 31 were processed for histological examination. […] FIG. 5F: Western blot analysis of RON expression in tumors samples from both control and 15 mg/kg Zt/g4-DM1-treated mice. Densitometry analysis was performed to determine the levels of RON expression;
Mouse xenograft CRC model and anti-RON ADC treatment: All mice studies were approved by the institutional animal care committee. Female athymic nude mice at 6 weeks of age (Taconic, Cranbury, N.J.) were injected with 5×10^6 HT29-Luc2, HCT116-luc2, or SW620 cells in the subcutaneous space of the right flank as previously described (18,33). Mice were randomized into different groups (five mice per group). […] The single-dose group received a tail vein injection of 20 mg/kg Zt/g4-DM1 in 0.1 ml PBS followed by observation for 28 days. The multi-dose study was performed by treating mice with Zt/g4-DM1 at 1, 3, 7, 10, and 15 mg/kg every four days for a total of five injections. Bioluminescence from individual tumors was measured every four days using Caliper IVIS image system (PerkinElmer). Tumor volumes from SW620-derived tumors were measured according to a formula: V=pi/6×1.58×(length×width)^3/2 (18,33). Animals were euthanized when tumor volumes exceeded 2000 mm^3 or if tumors became necrotic or ulcerated through the skin.
The inventors first determined the efficacy of a single dose of Zt/g4-DM1 at 20 mg/kg body weight on tumors derived from HCT116, HT29, and SW620 cells. Tumor growth by HCT116-luc2 and HT29-luc2 cells was measured by bioluminescence emitted from tumor cells. SW620-mediated tumors were evaluated by tumor volume (18,34).

[3] = 15 mg/kg every four days x5, day 31

B1: Zt/g4-DM1: anti-RON mouse mAb Zt/g4 conjugated to maytansinoid DM1 via non-reducible thioether linkage (SMCC), DAR about 4:1 (conjugate)
VH: EVQLQQSGAELVKPGASVKLSCTTSGFNIIDTYIHWVNQKPDQGLEWIGRIDPADGNRKSDPKFQVKATITVDTSSNTAYLQLSSLTSGDTAVYYCARGYGNLNAMDSWGQGTSVTVSS
VL: DIQMNQSPSSLSASLGDTITITCHASQNINVWLNWYQQKPGNIPKLLIYKASNLHTGVPSRFSGSGSGTGFTLTISSLQPEDIATYYCQQGQSYPLTFGGGTKLEIK
average reduction in mouse body weight ([1]; 60 mg/kg): 12%
toxic effect on mouse behavior or body weight ([1]; doses up to 40 mg/kg): no toxic effect on mouse behavior or body weight
distress ([1]; single dose 60 mg/kg, Balb/c mice): Moderate distress
body weight difference compared to control mice ([1]; single dose 60 mg/kg, day 24): 19%
reduction of body weight ([1]; single dose 60 mg/kg, within the first four days): about 6%
inhibition of tumor growth ([2]; 1 mg/kg every four days x5): no inhibition of tumor growth
inhibition of tumor growth ([2]; 3 mg/kg every four days x5): no inhibition of tumor growth
inhibition by average photon emission ([2]; 7 mg/kg every four days x5, day 19 to 43): more than 80%
inhibition by tumor weight ([2]; 7 mg/kg every four days x5, day 43): Significant inhibition was still observed
tumor growth inhibited ([2]; 7 mg/kg): more than 90%
inhibition by average photon emission ([2]; 10 mg/kg every four days x5, day 31): More than 95%
inhibition by tumor weight ([2]; 10 mg/kg every four days x5, day 43): Significant inhibition was still observed
tumor growth inhibited ([2]; 10 mg/kg): more than 90%
inhibition at average tumor weight [2, 3]: 90%
inhibition by average photon emission [2, 3]: More than 95%
average percentage of dead areas in a tumor mass ([2]; 15 mg/kg, day 31, H&E staining): 65%±7.4
RON expression in treated tumors ([2]; 15 mg/kg, day 31, Western blot, control 100%): 16.44%±5.75
tumor growth inhibited ([2]; 15 mg/kg): more than 90%
IC50 dose (dose achieving 50% tumor inhibition) ([2]; multi-dose, average photons at day 31): 5.01 mg/kg
inhibition by average bioluminescence intensity ([2]; single dose 20 mg/kg, day 16): More than 95%
inhibition rate by average tumor weight ([2]; single dose 20 mg/kg, day 28): 50.98%
